A short description of this series: soluble fraction after stress (log2 fold change); higher = more stays soluble; pooled small domains, quantitative proteomics. To be noted: stress: pH 4. The method in brief: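 Aggregation propensity is estimated from the fold change in each domain's soluble amount after acid stress. Pooled small-domain libraries were stressed at pH 4, and higher log2 values mean more stayed soluble.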
In the case of “HMGIKSSASLQEAAEKAQSAYYDIEHSGVATAVDIQRAWVAMVAAQIDAGEKLDSGTITLYERLKTST”, the “soluble fraction (log2)” value was -0.0327. With “HMGIMNFDTWLKSLPGTPTPTIAAKKSGLAAPTLLRHVERGYSTADNVIAIAKAYGVSPIDALVDNGML”, the “soluble fraction (log2)” value was -0.201. As to “HMGIMSEITHRVLRLLGLLESRSTWTGSDLAERLGVTQRTIRRDVIRLRELGYQVDSVQGLDGGYRMS”, the “soluble fraction (log2)” value is -0.0721. With “HMGIPVSIGQLDFNQARGNLALQVRASDFAALEQLRQRLGQTGESVQLGSASRDGDAVSARVVIGGQ”, the “soluble fraction (log2)” value was -0.0672. In the case of “HMGIQQNHMTLHARSVASSANVPAEHFDTLVEKLIESGDIKVWKAREILMNLSRQHEEILDES” it was -0.365; in that of “HMGISGSDLEKMIRNILVNNTDVVETIKSGQDKKGKKQKFLQGLIMKEARGQTDPREAASLLAKLLE”, 0.202; in that of “HMGITMFGQNLKKLRTSKNLSQSKLSKILGISSSTIGMYEQGRRFPDQTILTKIADFFDVSTDYLLGR”, 0.339. In the case of “HMGIVAQLPTIRVNGKTLYYYDAQSGDNIYSIAEKLGVTVEDIRANNPGVADGVKPRMRLFFPTSLAK” it was 0.0671; in that of “HMGIVYGVIKENWDQDHPGMVKVEILQGESGKNVSDWIPVMSPYAGKEFGAYALPEIGTQAVVAFE”, -0.0368. In the case of “HMGIYDQAAAAYIEFVESKNRAPKWNELIDALYKENGKDWIDRSTLHGLLRRKEFQELLAQKRKEHLV” it was -0.159. Take “HMGIYFIIAAKNQENNIEEFIRTTLFRIVYGKEESINNITLVDLKSKDNTKNIMEEIARENENVKV”: the “soluble fraction (log2)” value is -0.696. Take “HMGKAPREVQVGELLRVPALNAEGEVLRRDGESVELSIQGKKLRLPLAQLEAFSPRRFARRGEGKVRGRIE”: the “soluble fraction (log2)” value amounted to 0.266. As to “HMGKDLLGYEVFAESGDLVGILKDVMWLPHSDVYVITKGGKEFLIPVIPEVVKGINHEQGVIVISPMEGLL”, the “soluble fraction (log2)” value is -0.572.

On to “HMGKDTLKLKKNAIPYDENGKKLTNLGYSYIKKTTVLNYYGTKIINGSTYYFLGDGVYIKAANVGTTSH”, for which the “soluble fraction (log2)” value turned out to be 0.232. In the case of “HMGKEYERALQQVTKSEIDSDEKLQQQMDALVNSPRISDKEDAWALLLVKKLRNEGVEWDELPDVLSERVQ” it was -0.856; in that of “HMGKGGVAYLLESEFGIELPKDMQREFGPIANDIVDSLGREVSGAELKSMFWKEYIERETPFLLLLVTGQL”, -0.762. In the case of “HMGKIFSELTPREIEVVRLIADGLSNQQIAEELFLSNGTVRNHISTILEKTGLEHRTQIAVMWLR”, the “soluble fraction (log2)” value was -0.742. For “HMGKKIVERRNTILNMVNKYGTLDFPQLRDAFPDVSDVTLRKDLQYLDSTKQAIRTHGGIKSI” the value was -0.00897; for “HMGKLQFREKLNGILELGKEKHRVLTMEDVEKYFEEDALSEEQMELVYDYLLSQKIAVTGYVKK”, 0.414. In the case of “HMGKPPNNRIHRAKRDYALNLVKEHYPDFGPTLAAEKLAEHHGFTVSRETLRKWMIEDGIWLSRKQRR” it was -0.0217; in that of “HMGKQIKEIVEEYYDSTSKNSPVGGSWKTSLDGVDLTSPNITIWTRTKIKYVDGSESIVTPQSL”, -0.528. For the sequence “HMGKRPTIQMVAEMAGVSRGTVDRVLNGRSYVSAQVRQRVLAALQETGYISSREHHQQALQS”, the “soluble fraction (log2)” value stood at 0.0645. In the case of “HMGKRRGLKVAEEVFADRGYNPDGTLVNRSLPGAFVKDPDEAIARVIKMVKTKKVTAVNGEEIDIAADSI” it was -0.462; in that of “HMGKSDEIFIQKSALYEELGQPDRALEMIYSALKSDSLNIDVLHRLVTLLINQNKNEDAILYNQKIID”, -0.424; in that of “HMGKTEETLQMEKLVEALRRSGRMKYEDAYRIVYAAFPDAKDFEGMLSGAIRAGFIELQMGNDGAFLRAL”, -0.67. Regarding “HMGKVNGFEITVIEGKNVVGSITPRQAIAKNSDGVIQLRGEQSFSATDQVLINELAFYIKSNNLKA”, the “soluble fraction (log2)” value is -1.23. For “HMGLAALLQSGPVAGTVLSHQPGGKVVIAFQGQAYPLNLKGRTLQPGQSVLARMAGEQISLEVI” the value was -0.0159. Take “HMGLDERNLKLFAASLLEQAGKKITESTMTYLLDKTGSDMENIQNEVEKIIGYTMNHTVVTTEDIDAV”: the “soluble fraction (log2)” value is -0.745. In the case of “HMGLDPVFKKWVDDNPWYTENRVLRALTHDYAEELKQTNPQLVGVEFLDQVKKRVQADHPEFFQ” it was -0.552; in that of “HMGLGDLEVVDSIGKIRRDGQQMILAFGRHKGRDVQEVYNEDPRYINWLLSPKGIEDENGRGKVRDYLGIN”, -0.678; in that of “HMGLKQADFEELASRIFTVLEEKSMTPAEIVRKLNLEPDRISIVIQYLLDEGKLNIKDGFINNSA”, -0.773.

As for “HMGLLGIYPNPVEGGSVRLLSDADLFGSRFELYDQSGKLVLNGFVTEGNFVSVKGISSGLYISVSYT”, the “soluble fraction (log2)” value came out at 0.00514. For “HMGLLGTDISAETMIGYFKKIDLGFDEETQEVIVPSWRQDLLRDADIAEEVARFYGYDNIPTTLPSGEST” the value was -0.736.

“HMGLNLIGLKRSGFAPEEVKAMTRAYMYIFKSAEGNFESRLAKAHEKYKDDALIMEMVEFIDDALKG”: the “soluble fraction (log2)” value is -0.227. “HMGLQEADKQDRIARMKELISFLNEAAKAYYQEGREIVSNLEYDKAYDALLSLEKESGVVLSGSPSQNVG”: the “soluble fraction (log2)” value was -0.659. In the case of “HMGLRERLLNYIAYKGIDKATLERKSGLSNDAVNKMGDNTRVSTLDKISNAFPDINIAWLKTGVGEMILG” it was 0.146; in that of “HMGLSAALKARLREVINEMAKSGAQPKLREWALAEGIGNFAKPETPEAAEAVIAKAQELLAEA”, 0.429; in that of “HMGLSASVIQMFADLGYTSEGRSTKEMITDYQIDHSIIKNSTEDGAGTYGPRTKASLSTVHAQYI”, -0.535. In the case of “HMGLSENALAMLKQQETVLIRLIDGRGNQGALASINLIVSRILNLDIVDRTPEDLLRVIASEGEQND” it was -1.54. For “HMGMIRFSKEEQMLMMLYSPGSRLGLIAELESMKLQLNSRERKLRNLAESVLKKLEQITDEEFMQFDF” the value was -1.11.

Take “HMGMNSGQADFRGISLALSVDAEAEAQRLFTALADGGQVQMPLSKTFFSPAFGMVADRFGVGWMVVTN”: the “soluble fraction (log2)” value was -0.0936. For “HMGMSENIDKVAGGIPYKVEGNKAIINEPLDDATKERLMGKAKEHGYHAAPNQAGGITITLK” the value was 0.0104.

Turning to “HMGMSKQKQSSLVRIIMQEISDANEGRMKMSQIIDAALIKGISDSTVRSVISRLSTTGAIYEPQTGTYEW”, the “soluble fraction (log2)” value was -0.374. For “HMGNEEEEAIREAEEAIERVLEYGEPQELNPQNGFIRRLQHQLAEKSHLSSESVGVEPYRRVRISK” the value was -0.00812. Turning to “HMGNFFDSAILALKNAIQENYGGNVSQAARSLGISVPTLHTWIKGDRKPSLEKLSPILDALNAKIVL”, the “soluble fraction (log2)” value was -0.276.

Turning to “HMGNFGDLLKILLDEKELSMGELSKKSGIDKSTISRIANNKQKPNINHLEKMAIHLNINLEELLKASGYEF”, the “soluble fraction (log2)” value was -0.857. For “HMGNFQNIFRKLRTSSNLTQNAIAEKLGISRSTIGMYETGAREPDFETLEKIADYFNVDTDFLLGRTNQTT” the value was -0.0101; for “HMGNKDAQLVHLAKMNEIQIELMKTGRGYMVTDQNVYNLAKKMGENMGFKHPDLFLTDPAKV”, -0.0687.

Take “HMGNKDIEILFSEIVEMRNRIIHGFRITSKQGEQILATKTRKKDGNIQFEITKEYLLDFIKKNEELSDMLY”: the “soluble fraction (log2)” value is -1.49. For “HMGNKWALLVVFILNENGSTRFNQLARQIPDISTKVLSNTLQILEADGLVKRTVFPEVPIRVEYELTATGK” the value was -0.987; for “HMGNLIIFYDEGIGSGPLMKAVNDSGVSLVYEYKNLHGIAIRPSAKTNIQDAIAYFQKVNGVLSVEQ”, -0.65; for “HMGNNKLVLSLAVALKNTPNFLKNYNYKISKDKKFIEILLSKQINEVSDIIINLKKNNINIVDLNIKKR”, -0.0131. For “HMGNNTEITYSEFIRQAEAGNVQYVTVDGEKLLISATDGKSYYTINPRDDQMTDRLLNSGVEIRAEPQ” the value was -0.482. In the case of “HMGNRQEQVRIIRDLWRQLADAGQPVPAKHLTLDLDALDATQLTKLEDQAHGWLAKLSAQADLADAA”, the “soluble fraction (log2)” value stood at 0.22. Regarding “HMGNTMIVILKHEARQEQIDRLKQFLLGMGLRIDESKGENSTILGLVGDTTRVDADLISSLDAVEAVRRV”, the “soluble fraction (log2)” value was -0.626. In the case of “HMGNWENVEKETTEAIMAVKNGEAVWVDLAPANRMIRQMQHELVEQYGLLSQSYGKEPKRRIRIFQNP” it was 0.0117; in that of “HMGPDALSIGRRVRQVRTARGMTLDELAAAVSRAPSQLSMIETGKREPKLSLLQAIARALGTTIDALLT”, 0.126.

As to “HMGPDGLFAKFREPETGKDLLITQNVFVEQVLIKGVLTRTLTDAEANTYRAPFVNPEKRFPIYVWPNELP”, the “soluble fraction (log2)” value is -0.0131. “HMGPEAFPVPYIVDIELDRAIYVIEQSGFIVGQKLEANDDNVPRGFVISQNPAAGTKLGPNSVVDLVISSG”: the “soluble fraction (log2)” value is -0.893. In the case of “HMGPEQLIGKTGIAASELAPRGEVKIEGQIWRAETVGDHVKQGEPVEVVSREGLILRVKPKHPQTRG” it was -0.0209; in that of “HMGPEVQLAYSEFLAKVKVGEVNDVMVKGNEIHGHFSDGRTFSTYSPNDPDLVEKLNKNKVMIKAAPP”, -0.0878; in that of “HMGPFYFDQDGKAYSGLLNRNGEILYFADPFNAAVKNTTKTIDGKTYTFNQNGRATSIDGIPLEPP”, -0.17.

Consider “HMGPGDTTIPTTIIGMSLEEARNELSAAGLLVARIIPVDSNSRTGTVLKITPDAGSIIKAGSGVELEIAS”, for which the “soluble fraction (log2)” value worked out at 0.206. For “HMGPGFVGGSVLSGGNRGEGDPVANAQVFITDMDDNVVAFTKTDAEGNFDMTNLAYGDYKMYVDILNK” the value was -0.741. In the case of “HMGPGSYVVNVKPYAYVSINGRDYGRTPVGPIRLDPGTYKVVFTHEHRPSFSRTIVVEAGRETFETFPYPG” it was -0.107; in that of “HMGPLPIDSRYFNNLVPYTGITHVNSVIPEAERHIGLTVVVKTGSTYSEYWYRTGVTNSSLELKT”, -0.726; in that of “HMGPLYARVKAIVLARIMGGDWPPGTALPAEMELARALGVSQGTVRKALDALTAEQVVVRRQGSGTYVAE”, -0.158. For “HMGPNYYDILEIPTDASPSEITQAFRKKALEWHPDKNPNNLEEATSRFIEIVEAYRVLSSKDSKLQYDTG”, the “soluble fraction (log2)” value is -0.422.

The values above are taken from the domain aggregation screens of Martell et al. (2025).
